The values that follow come from publication doi:10.1101/2024.03.13.584817 (bioRxiv, 2024).

Experiment [1] has as its target T1, dROS1 ECR construct 1-4 (126-1298), His-tagged (Drosophila, UniProt P13368 126-1298).
T1 sequence (looked up): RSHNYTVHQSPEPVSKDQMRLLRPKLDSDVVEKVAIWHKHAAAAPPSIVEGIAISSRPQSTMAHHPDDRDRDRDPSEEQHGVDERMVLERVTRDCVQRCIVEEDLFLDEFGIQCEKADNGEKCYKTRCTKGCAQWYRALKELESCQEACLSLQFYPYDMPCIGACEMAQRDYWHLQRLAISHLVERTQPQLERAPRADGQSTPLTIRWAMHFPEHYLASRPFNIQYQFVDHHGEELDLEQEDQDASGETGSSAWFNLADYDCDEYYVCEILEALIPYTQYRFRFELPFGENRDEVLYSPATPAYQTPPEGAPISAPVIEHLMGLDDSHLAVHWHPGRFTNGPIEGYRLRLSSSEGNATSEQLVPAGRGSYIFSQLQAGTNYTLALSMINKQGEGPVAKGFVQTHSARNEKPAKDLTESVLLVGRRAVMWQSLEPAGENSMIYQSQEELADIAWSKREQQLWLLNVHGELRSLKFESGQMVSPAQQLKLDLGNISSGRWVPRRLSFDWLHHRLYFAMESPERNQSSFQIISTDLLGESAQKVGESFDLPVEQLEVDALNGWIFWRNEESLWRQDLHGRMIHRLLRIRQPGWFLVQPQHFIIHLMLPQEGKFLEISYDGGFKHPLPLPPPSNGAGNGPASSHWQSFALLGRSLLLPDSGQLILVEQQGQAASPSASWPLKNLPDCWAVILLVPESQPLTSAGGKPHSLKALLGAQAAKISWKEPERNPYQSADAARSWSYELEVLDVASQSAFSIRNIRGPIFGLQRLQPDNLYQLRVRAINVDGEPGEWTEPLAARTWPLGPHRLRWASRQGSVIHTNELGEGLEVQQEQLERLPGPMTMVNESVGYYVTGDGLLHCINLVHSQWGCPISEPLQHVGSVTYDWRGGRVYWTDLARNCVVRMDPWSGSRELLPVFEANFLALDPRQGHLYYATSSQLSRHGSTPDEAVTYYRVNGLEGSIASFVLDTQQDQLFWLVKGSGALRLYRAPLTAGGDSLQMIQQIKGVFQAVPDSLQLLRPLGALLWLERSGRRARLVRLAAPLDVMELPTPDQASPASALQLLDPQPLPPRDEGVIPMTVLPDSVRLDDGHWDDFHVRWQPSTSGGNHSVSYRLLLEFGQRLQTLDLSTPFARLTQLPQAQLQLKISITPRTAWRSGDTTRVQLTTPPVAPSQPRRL
The experiment in a line: SPR. (In general: SPR reads the build-up and loss of mass on a sensor chip optically.)

The target of experiment [2] is dROS1 ECR construct 1-9 (126-2113) (Drosophila, UniProt P13368 126-2113). Put plainly: SPR.

B1: BOSS ECR (102-510), His-tag cleaved (domain or fragment, Drosophila, UniProt P22815 102-510, looked up)
chain: GTTASLVPEICLNGLQLTVNSADEGTVIRKQEEFVKILEGDVVLSVLTKDPDSALFVINRVNQANLIMADFEIGIRAISIDNASLAENLLIQEVQFLQQCTTYSMGIFVDWELYKQLESVIKDLEYNIWPIPGTRAHLFPKVAHLLHQMPWGEKIASVEIATETLEMYNEFMEAARQEHMCLMHFKSDDNVYIMFGNKLASHFKENGTLFSVPTDRTDDEFLADLPNRAFVLMENEIDLSTAVELDATPTALDEILIGKSVLPSRVLSFAGSIIDLMNWLRGSLSKHCKRGEEHDLYVLESCFNFLNFIEDWRTSEYRQAHDTAEILSLLLMRKLGTAMNFQMYQKKVLTLDKITGESRTELREIASQNFVTNVTTYYHYNRDNHTSLELKTKFGQVFNCQYSAGDNRR
Take B1: the figures for the Kd in experiment [1] and in experiment [2] were 3 to 5 µM and 4.4 µM, respectively.

One may read the Kd as the equilibrium constant for the complex coming apart.
